Results: publication PMC4337239, “Polyol specificity of recombinant Arabidopsis thaliana sorbitol dehydrogenase studied by enzyme kinetics and in silico modeling” (Frontiers in Plant Science, 2015)

Tests used:
Assay in all cases: purified protein
purified protein [1] = substrate: OC[C@@H](O)[C@@H](O)[C@H](O)[C@@H](O)CO; format: biochemical, Arabidopsis thaliana; details: 1.36 mM NAD+, 100 mM Tris-HCl pH 9, 25 °C, Michaelis-Menten fit
purified protein [2] = substrate: OC[C@@H](O)[C@@H](O)[C@@H](O)CO; details: 1.36 mM NAD+, 100 mM Tris-HCl pH 9, 25 °C, Michaelis-Menten fit
purified protein [3] = substrate: OC[C@@H](O)[C@H](O)[C@@H](O)CO; details: 1.36 mM NAD+, 100 mM Tris-HCl pH 9, 25 °C, fit with substrate inhibition

B1: recombinant AtSDH (Arabidopsis thaliana) (protein)
chain: MGKGGMSQGEGSKVEEENMAAWLVGINTLKIQPFLLPSVGPHDVRVRMKAVGICGSDVHYLKTMRCADFVVKEPMVIGHECAGIIEEVGEEVKHLVVGDRVALEPGISCWRCNLCREGRYNLCPEMKFFATPPVHGSLANQVVHPADLCFKLPENVSLEEGAMCEPLSVGVHACRRAEVGPETNVLVMGAGPIGLVTMLAARAFSVPRIVIVDVDENRLAVAKQLGADEIVQVTTNLEDVGSEVEQIQKAMGSNIDVTFDCAGFNKTMSTALAATRCGGKVCLVGMGHGIMTVPLTPAAAREVDVVGVFRYKNTWPLCLEFLTSGKIDVKPLITHRFGFSQKEVEDAFETSARGSNAIKVMFNL
notes: full length 364 residues; N-terminal 6xHis tag cut off by TEV protease; pEXP5-NT/TOPO, cell-free in vitro expression (Expressway); oligomeric state not determined
Purified protein [1]
  Km: 0.96 ± 0.07 mM
  kcat: 2.13 ± 0.03 s⁻¹
  kcat/Km: 2230 ± 170 M⁻¹ s⁻¹
Purified protein [2]
  Km: 1.05 ± 0.10 mM
  kcat: 1.83 s⁻¹
  kcat/Km: 1740 M⁻¹ s⁻¹
Purified protein [3]
  Km: 0.27 ± 0.04 mM
  kcat: 2.12 s⁻¹
  kcat/Km: 7740 M⁻¹ s⁻¹
